# Measured values reported in patent publication US20260201389A1 (NATIONAL UNIVERSITY OF SINGAPORE, published 2026).
# Columns and labels:
# SMAD2 protein [1] = biological target: T1, SMAD2 protein (mouse, UniProt Q62432 2-467); experiment: co-immunoprecipitation with anti-SMAD2 antibody from TGFβ1-stimulated mouse WT primary cardiac fibroblasts, western blot (FIG. 16D)
# T1 construct: Endogenous protein in cell lysates
# SMAD2 protein [2] = biological target: T1, SMAD2 protein; experiment: co-immunoprecipitation with anti-FLAG antibody from NIH-3T3 lysates, western blot (FIG. 16C)
# T1 sequence (Q62432 2-467 limits assumed): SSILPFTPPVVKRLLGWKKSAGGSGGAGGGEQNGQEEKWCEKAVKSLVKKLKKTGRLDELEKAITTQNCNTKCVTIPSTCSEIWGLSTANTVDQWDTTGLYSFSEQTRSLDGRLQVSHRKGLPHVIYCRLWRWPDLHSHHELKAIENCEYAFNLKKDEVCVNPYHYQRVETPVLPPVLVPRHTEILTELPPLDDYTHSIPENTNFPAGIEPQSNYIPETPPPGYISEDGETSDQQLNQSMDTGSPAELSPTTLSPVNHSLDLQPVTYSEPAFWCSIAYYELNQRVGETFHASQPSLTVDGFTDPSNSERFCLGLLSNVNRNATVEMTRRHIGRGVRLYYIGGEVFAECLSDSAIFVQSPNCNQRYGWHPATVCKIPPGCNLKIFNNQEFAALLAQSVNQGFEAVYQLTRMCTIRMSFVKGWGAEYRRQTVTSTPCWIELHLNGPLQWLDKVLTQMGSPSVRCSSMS
binding result (SMAD2 protein [1]),binding result (SMAD2 protein [2]),Binder
no binding,,"WWP2-C, endogenous in mouse WT primary cardiac fibroblasts (enzyme, UniProt Q9DBH0 440-870, looked up) MIQEPALPPGWEMKYTSEGVRYFVDHNTRTTTFKDPRPGFESGTKQGSPGAYDRSFRWKYHQFRFLCHSNALPSHVKISVSRQTLFEDSFQQIMNMKPYDLRRRLYIIMRGEEGLDYGGIAREWFFLLSHEVLNPMYCLFEYAGKNNYCLQINPASSINPDHLTYFRFIGRFIAMALYHGKFIDTGFTLPFYKRMLNKRPTLKDLESIDPEFYNSIVWIKENNLEECGLELFFIQDMEILGKVTTHELKEGGENIRVTEENKEEYIMLLTDWRFTRGVEEQTKAFLDGFNEVAPLEWLRYFDEKELELMLCGMQEIDMSDWQKNAIYRHYTKSSKQIQWFWQVVKEMDNEKRIRLLQFVTGTCRLPVGGFAELIGSNGPQKFCIDRVGKETWLPRSHTCFNRLDLPPYKSYEQLKEKLLYAIEETEGFGQE"
,no binding,"FLAG-tagged WWP2-C (enzyme, Expressed from a plasmid in NIH-3T3 mouse fibroblasts; The position of the FLAG tag is unknown; also called WWP2-Flag isoforms; C-terminal isoform; not shown: FLAG tag) MIQEPALPPGWEMKYTSEGVRYFVDHNTRTTTFKDPRPGFESGTKQGSPGAYDRSFRWKYHQFRFLCHSNALPSHVKISVSRQTLFEDSFQQIMNMKPYDLRRRLYIIMRGEEGLDYGGIAREWFFLLSHEVLNPMYCLFEYAGKNNYCLQINPASSINPDHLTYFRFIGRFIAMALYHGKFIDTGFTLPFYKRMLNKRPTLKDLESIDPEFYNSIVWIKENNLEECGLELYFIQDMEILGKVTTHELKEGGESIRVTEENKEEYIMLLTDWRFTRGVEEQTKAFLDGFNEVAPLEWLRYFDEKELELMLCGMQEIDMSDWQKSTIYRHYTKNSKQIQWFWQVVKEMDNEKRIRLLQFVTGTCRLPVGGFAELIGSNGPQKFCIDKVGKETWLPRSHTCFNRLDLPPYKSYEQLREKLLYAIEETEGFGQE"
